In the assay the target is T1, c-Myc-tagged SLC9A9 C-terminal with both mutations (V512G and K534R) (rat, UniProt D4A7H1 494-644, V512G | K534R).
T1 sequence (looked up): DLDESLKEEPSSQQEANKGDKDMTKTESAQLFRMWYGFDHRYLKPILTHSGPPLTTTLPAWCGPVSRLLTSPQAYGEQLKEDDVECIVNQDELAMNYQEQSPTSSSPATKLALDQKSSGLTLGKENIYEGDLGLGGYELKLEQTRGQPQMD
The assay can be described thus: co-IP.

B1: Flag-tagged calcineurin homologous protein (CHP) (natural protein, rat, UniProt P61023 1-195, looked up)
chain: MGSRASTLLRDEELEEIKKETGFSHSQITRLYSRFTSLDKGENGTLSREDFQRIPELAINPLGDRIINAFFSEGEDQVNFRGFMRTLAHFRPIEDNEKSKDVNGPEPLNSRSNKLHFAFRLYDLDKDDKISRDELLQVLRMMVGVNISDEQLGSIADRTIQEADQDGDSAISFTEFVKVLEKVDVEQKMSIRFLH
For B1, the “fold change of CHP co-precipitated against wild-type SLC9A9 C-terminal” value is roughly 2 fold.

The values above are taken from paper PMC3168688 (American journal of medical genetics. Part B, …, 2011).
